± gives the standard deviation of the averaged measurements.
Tested on: Saccharomyces cerevisiae
Test: protein stability index of tFT-peptide fusion (C-terminal peptide) (PSI (0-1 scale)); higher = more stable (slower turnover)
Conditions: genetic background: wild type; temperature: 30 C
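Further: PSI is a weighted mean of sequencing reads over stability bins, variants kept only with over 10 reads, mCherry proximal and sfGFP distal, peptide attached via GGGS linker.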

Sequence	protein stability index
VVADNGASGWAW	0.7579 ± 0.0033
VVALLGPSGGWW	0.742 ± 0.018
VVASSRSAQRLP	0.7006 ± 0.0064
VVCRTSPVCLGK	0.672 ± 0.019
VVDGWVAAWGVW	0.694 ± 0.003
VVFGLESCDWRG	0.669 ± 0.0093
VVGHGLAGCKVG	0.668 ± 0.037
VVGRCVWRGMGG	0.688 ± 0.031
VVGRGGGFVGPG	0.616 ± 0.026
VVGRVGGFVGPG	0.677 ± 0.1
VVGRVTGGGSDG	0.646 ± 0.037
VVGRWGWACCRP	0.681 ± 0.071
VVHATITGPVRS	0.635 ± 0.019
VVKKDTHVKRKT	0.636 ± 0.027
VVLFHGLGFCHN	0.627 ± 0.072
VVLGGFAVGLGF	0.708 ± 0.021
VVLPLCRVPSHW	0.688 ± 0.05
VVLRRTLGAFLF	0.661 ± 0.059
VVREAKGHGGCR	0.667 ± 0.014
VVREARTLNGDM	0.671 ± 0.099
VVRLTALTNATV	0.671 ± 0.086
VVRLTNGLFSIL	0.662 ± 0.0094
VVSITYCGQGGG	0.694 ± 0.045
VVSLGLGPSLRV	0.709 ± 0.1
VVSQSPTLGSNY	0.655 ± 0.022

Sequence	protein stability index
VVTSVLCGRVHL	0.682 ± 0.0069
VVVAWGGGAVVG	0.684 ± 0.018
VVVGSITRLGLW	0.6908 ± 0.00074
VVVGVGGCVDMG	0.676 ± 0.014
VVVGWWALGRFL	0.629 ± 0.018
VVVRAGAIFAIP	0.62 ± 0.045
VVVSRARSSRSS	0.6332 ± 0.0021
VVWEGSEFVSLA	0.671 ± 0.039
VVWSGRWKGLRV	0.621 ± 0.12
VWAWGACPRGEG	0.6429 ± 0.0016
VWCAFNLLFARQ	0.574 ± 0.032
VWGIIQTDRMGR	0.744 ± 0.017
VWGRGWVVGWFL	0.612 ± 0.066
VWGRLGGGVGRA	0.719 ± 0.069
VWGRQGGGVGRA	0.715 ± 0.088
VWGVFGGCWCGV	0.693 ± 0.021
VWSWGDGGGAVV	0.734 ± 0.029
VWTATLRPPGHP	0.655 ± 0.068
VWVGGGRRDPKY	0.735 ± 0.075
VWVGGVSVGFFG	0.716 ± 0.061
VWVSRPWGRGGL	0.681 ± 0.038
VYACGVDFNVRG	0.678 ± 0.094
VYRLYPLSPLLY	0.679 ± 0.12
VYVLTKSSMGRN	0.692 ± 0.048
WADLIPDSFGDM	0.741 ± 0.059

Sequence	protein stability index
WADYLWFGLNGG	0.712 ± 0.028
WAGGGGGRVCGW	0.799 ± 0.11
WAGGSGRRIGCR	0.712 ± 0.0089
WARSLPHPISRR	0.803 ± 0.064
WASKVGSYICAE	0.671 ± 0.02
WCFSLGYFFFCR	0.585 ± 0.05
WCFVGLVNTCRI	0.617 ± 0.025
WCFVPLSFRLDS	0.71 ± 0.025
WCGGGGVACLLL	0.693 ± 0.0086
WCGTLVDRGCSL	0.554 ± 0.026
WCQREPSSKYKI	0.578 ± 0.054
WDGWPTGSGGTG	0.72654 ± 0.00043
WECGRVSVIRRC	0.594 ± 0.019
WESWGPDWLCVG	0.769 ± 0.035
WFGSGGRGWREF	0.713 ± 0.048
WFKSIREGKGSR	0.68 ± 0.044
WFNAGAGDLGSV	0.709 ± 0.033
WFPPLPPPPPPS	0.734 ± 0.028
WGCVGVGGLFSG	0.665 ± 0.017
WGECGVWVGLWG	0.709 ± 0.051
WGGGVGWSGACL	0.734 ± 0.02
WGGRSGTWGLVG	0.803 ± 0.1
WGGTGALGTVRW	0.759 ± 0.028
WGGVGLRGGWDG	0.713 ± 0.047
WGGVGRLAGLLG	0.703 ± 0.021

Sequence	protein stability index
WGGYLISLNLYN	0.561 ± 0.025
WGHFVGVWGRAG	0.664 ± 0.075
WGLGVFALKTLL	0.623 ± 0.034
WGRAGPSSPCSC	0.709 ± 0.088
WGRGWWEMVGRT	0.686 ± 0.0074
WGRIVRDFHCGG	0.614 ± 0.0083
WGRQSERILRST	0.606 ± 0.046
WGRRWRCAGRGG	0.656 ± 0.056
WGSSCQAEDVTN	0.737 ± 0.016
WGTGGGLGVGHV	0.726 ± 0.093
WGVCGVFLCLGV	0.572 ± 0.11
WGVGVGGRMRPH	0.707 ± 0.044
WGWSLARRFLSV	0.555 ± 0.037
WGYRLRGGGGQG	0.701 ± 0.064
WHFTPPPPPTSP	0.715 ± 0.011
WHGLLEWLAWRT	0.736 ± 0.078
WHRTGPFCGFPC	0.766 ± 0.17
WIIRATCAGVSL	0.528 ± 0.032
WKETGRGTISHK	0.699 ± 0.013
WKEVGGSRILLV	0.6033 ± 0.0031
WKKYTKTKKKKN	0.689 ± 0.021
WLDDCVRVGMRI	0.6722 ± 0.0033
WLEVHVRERPGL	0.661 ± 0.035
WLFFVCEDAGGC	0.68 ± 0.021
WLPTTPLPPLSP	0.703 ± 0.018

Sequence	protein stability index
WLVRRVSSGQFG	0.653 ± 0.062
WNCRILGLVMRG	0.695 ± 0.029
WNFVCGVFFATG	0.543 ± 0.056
WNPHFHALSWRL	0.684 ± 0.019
WPAPLPPTRPLP	0.722 ± 0.038
WPCGGLRFSLPY	0.674 ± 0.029
WPHGHVNTHRIG	0.737 ± 0.038
WPKNSTNHSWKW	0.744 ± 0.035
WPVPPASYPALS	0.728 ± 0.14
WQCRAPRFEKGV	0.696 ± 0.08
WQGLGGARGCML	0.691 ± 0.066
WRGEMGGSGGQA	0.713 ± 0.032
WRGLGWSDAGGG	0.654 ± 0.043
WRGRCGPVLGFC	0.659 ± 0.027
WRLVREGRMRGG	0.742 ± 0.031
WRRGIRAKIDSI	0.678 ± 0.015
WRRPRVLWVSSR	0.637 ± 0.0079
WRVFPVVSCSSS	0.6312 ± 0.0053
WSGKRAKGISEK	0.682 ± 0.04
WSGVFSCTLSIT	0.567 ± 0.038
WSPFSLISLSPP	0.725 ± 0.099
WSSLSCACVVPF	0.726 ± 0.065
WSSTTISVQRGL	0.7 ± 0.089
WSSVSGEFRSLW	0.707 ± 0.035
WSVHGLGSVSIY	0.707 ± 0.014

Sequence	protein stability index
WSYGHVPYDYPF	0.73 ± 0.022
WTLSDTRHVLPV	0.6683 ± 0.00084
WTSGCLEIFRRE	0.702 ± 0.033
WVESGGGCVGRI	0.706 ± 0.039
WVGSGRVWVKLG	0.708 ± 0.0092
WVGVGMRTNGLG	0.679 ± 0.072
WVLGGSWLRCRK	0.726 ± 0.014
WVNRFVFFSPST	0.615 ± 0.11
WVPGAAGFTGSL	0.74 ± 0.049
WVVRVMYTSSGK	0.556 ± 0.035
WWASFVGSFVGD	0.878 ± 0.15
WWEFSCGFVVGG	0.671 ± 0.098
WWGSGGREPGGS	0.739 ± 0.05
WWSASGGQDVLK	0.67 ± 0.061
WYHALTLASWLS	0.577 ± 0.021
YAGARGPMNRGS	0.701 ± 0.015
YARLAWDFRRSP	0.737 ± 0.019
YATAICRSGCLK	0.699 ± 0.037
YCAMVSVGVVGG	0.534 ± 0.0076
YCGGRWGGWEIG	0.684 ± 0.0037
YCHLNLHGCKGC	0.636 ± 0.023
